Assay results from the RNAGym collection of RNA variant scans (doi:10.1073/pnas.2313332121).
Variants at the floor of the assay were thinned out.

B1: TPR 5TU (parent)
chain: GGAUCUUCUCGAUCUAACAAAAAAGACAAAUCUGCCACAAAGCUUGAGAGCAUCUUCGGAUGCAGAGGCGGCAGCCUUCGGUGGCGCGAUAGCGCCAACGUUCUCAACUAUGACACGCAAAACGCGUGCUCCGUUGAAUGGAGUUUAUCAUG

Variants of: B1
Assay: polymerase ribozyme fitness, log enrichment relative to wild type (log ratio); higher = more active; in vitro selection for triplet polymerase activity
In short: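 Both subunits of a heterodimeric triplet polymerase ribozyme were given their own mutant library, built by PCR and transcribed. Each library was annealed with a biotinylated primer, the partner subunit and triplets, incubated frozen at −7 °C, and its extended constructs gel-excised, captured on streptavidin beads and amplified by RT-PCR, all in one round done in triplicate. Fitness is the logarithm of genotype enrichment relative to wild-type enrichment, with replicates averaged by inverse-variance weighting. That logarithm is base 2, and Illumina-sequenced genotypes needed ≥10 input reads and ≥1 read per output.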

GGAUCUUCUCGAUCUAACAAAAAAGACAACUCAGCCACAAAGCUUGAGAGCAUCUUCGGAUGCAGAGUCGGCUGCCUUCGGUGGCGCGAUAGCGACAACGUUCUCAACUAUGAAACGCAAGACGCGUGCUCCGUUGAAUGGAGUUUAUCAUG [A30C U33A G68U A73U C95A C114A A121G] and GGAUCUUCUCGAUCUAACAAAAAAGACAACUCUGCCACAAAGCUUGAGAGCAUCUUCGGAUUCAGAGGCGGCAGCCUUCGGUGGCGCGAGAGCGACAACGUUCUCAACUAUGACACGCAAAACACGUGCUCCGUUGACUGGAGUUUAUCACG [A30C G62U U90G C95A G124A A138C U151C] cannot be ordered by “polymerase ribozyme fitness (log ratio)” value: ≤ -4.2 for the first, ≤ -4.2 for the second.

Going from GGAUCUUCUCGAUCUAACAAAAAAGACAACUCUGCCACAAAGCUUGAGAGCAUCUUCGGAUGCAGAGGCGGCAGCCUUCGGUGGUGCGAUAGCGCCAACGUUCUCAACUAUGACACGCAAAACGCGUGCUCCGUUGAAUGGAGUUUAUCAUG [A30C C85U] to GGAUCUUCUCGAUCUAACAAAAAAGACAAGUCUGCCACAAAGCUUGUGACCAUCUUCGGAUGCAGAGGCGGCAGCCUUCCGUGGCGCGAUAGCGCUAACGUUUUCAACUAUGACACGCAAAACGCGUGCUCCGUUGAAUGGAGUUUAUCAUG [A30G A47U G50C G80C C96U C103U], the “polymerase ribozyme fitness (log ratio)” value falls from -4.09 to ≤ -4.2.

GGAUCUUCUCGAUCUAACAAAAAAGACAAGUCUGCCACAAAGCUUGCAAGCAUCUUCGGAUGCAGAGGCGGCAGCCUUCGGUGGCGCGAUAGCGCCAACGUUCUCAACUAUGACACGCAAAACGCGUGCUCCGUUGAAUGGAGUUUAUCAUG [A30G A47C G48A] and GGAUCUUCUCGAUCUAACAAAAAAGACAACUCUGCCACAAAGCUUGAGAGCAUCUUCGGAUGCAGAGGCGGCAGCCUUGGGUGGUGCGAUAGCGCCAACGUUCUCUACUAUGACACGCAAAACGCGUGCUCCGUUGAAUGGAGUUUAUCAUG [A30C C79G C85U A106U] cannot be ordered by “polymerase ribozyme fitness (log ratio)” value: ≤ -4.2 for the first, ≤ -4.2 for the second.

GGAUCUUCUCGAUCUAACAAAAAAGACAACUCUGCCACAAAGCUUGAGAGCAUCUUCGCCUGCAGAGGCGGCAGCCUUCGGUGGCGCGAUAGAGCCAAUGUUCUCAACUAUGAAACGCAAAACGCGUGCUCCGUUGAAUGGAGUUUAUCAUG [A30C G59C A60C C93A C99U C114A] and GGAUCUUCUCGAUCUAACAAAAAAGACAACUCUGCCACAAAGCUUGAGAGCAUCUUUGCAUGCAGAGGCGGCAGCCUUCGGAGGCGCGAUAGCGCCAACGUUCUCAACUAUGACACACAAAACGCGUGCUCCGUUGACUGGAGUUUAUCAUG [A30C C57U G59C U82A G117A A138C] cannot be ordered by “polymerase ribozyme fitness (log ratio)” value: ≤ -4.2 for the first, ≤ -4.2 for the second.

GGAUCUUCUCGAUCUAACAAAAAAGACAACUCUGCCACAAAGCUUGAGAGCAUCUUCGGAUGCAGAGGCGGCAGCCUUCGGUGGCGCGAUAGCGCAAACGUUCUCAACUAUGACACGCAAAACGCGUGCUCCGUAGUAUGGAGUUUAUCAUG [A30C C96A U135A A137U] and GGAUCUUCUCGAUCUAACAAAAAAGACAACUCUGCCACAAAGCUUGAGAGCAUCUUCGGAUGCAAACGCGGCAGCCUUCGGUGGCGCGAUAGCGCCAACAUUCUCAACUAUGACACGCUAAACGCGUGCUCCGUUGAAUGGAGUUUAUCAUG [A30C G65A G67C G100A A119U] cannot be ordered by “polymerase ribozyme fitness (log ratio)” value: ≤ -4.2 for the first, ≤ -4.2 for the second.

Compared with GGAUCUUCUCGAUCUAACAAAAAAGACAAGUCUGCCACAAAGCUUGUGAGCAUCUUCGGAUGCGGAGGCGGCAGCCUUCGGUGGCGCGAUAGCACCAACGUUCUCAACUAUGACACGCAAAACGCGUGCUCCGUUGAAUGGAGUUUAUCAUG [A30G A47U A64G G94A], GGAUCUUCUCGAUCUAACAAAAAAGACAACUCUGCCACAAAGCUUGACAGCAUCUUCGGGUGCAGAGGCGGCAGCCUUCGGUGGCGCGAUAGCGCCAACGUUCUCAACUAUGACACGCAAAACGCGUGCUCCGUUGAAUGGAGUUUAUCAUG [A30C G48C A60G] is lower in “polymerase ribozyme fitness (log ratio)” value: -3.57 for the first, ≤ -4.2 for the second.

GGAUCUUCUCGAUCUAACAAAAAAGACAACUCUGCCACAAAGCUUGAGAGCAUCUUCGGAUGCAGAGGCGGCAGGCUUCGGUGGCGCGAUAGCGCCAACGUUGUCAACUAUGACACGCAAAACGCGUGCUCCGUUGAAUGGAGUUUAUCAUG [A30C C75G C103G] and GGAUCUUCUCGAUCUAACAAAAAAGACAACUCUGCCACAAAGCUUGAGACCAUCUUCGGAUGCAGGGGCGGCAGCCUUCGGUGGCGCGAUAGCGCCAACGUUCUCAACUAUGACACGCAAAACGCGUUCUCCGUUGAAUGGAGUUUAUCAUG [A30C G50C A66G G128U] cannot be ordered by “polymerase ribozyme fitness (log ratio)” value: ≤ -4.2 for the first, ≤ -4.2 for the second.

GGAUCUUCUCGAUCUAACAAAAAAGACAACUCUGCCACAAAGCUUGAGAGCAUCUUGGGAUGUAUAGGCGGCAGCCUUCGGUGGCGCGAUAGCGCUUACGUUCUCAACUAUGACACGCAAAACGCGUGCUCCGUUGAAUGGAGUUUAUCAUG [A30C C57G C63U G65U C96U A97U] and GGAUCUUCUCGAUCUAACAAAAAAGACAAGUCUGCCACAAUGCUUGAGAGCAUCUUCGGAUGCAGAGGCGGCAGCCUUCGGUGGCGCGAUAGCGCCAACGUUCUCAACUAUGACACGCAAAACGCGUGCUCCGUAGUAUGGAGUUUAUCAUG [A30G A41U U135A A137U] cannot be ordered by “polymerase ribozyme fitness (log ratio)” value: ≤ -4.2 for the first, ≤ -4.2 for the second.

Compared with GGAUCUUCUCGAUCUAACAAAAAAGACAAGUCUGCCACAAAGCUUGAGAGCAUCUUCGGGUGCAGAGGCGGCAGCCUUCGGUGGCGCGAUAGAGCCAACGUUCUGAACUAUGACACGCAAAACGCGUGCUCAGUUGAAUGGUGUUUAUCAUG [A30G A60G C93A C105G C132A A142U], GGAUCUUCUCGAUCUAACAAAAAAGACAACUCCGCCACAAAGCUUGAGAGCAUCUUCGGAUGCAGAAGCGGCAGCCUUCGGUGGCGCGAUAGGGCCAACGUUCUCAACUAUGACACGCUAAACGCGUGCUCCGUUGAAUGGAGUUUAUCAUG [A30C U33C G67A C93G A119U] is higher in “polymerase ribozyme fitness (log ratio)” value: ≤ -4.2 for the first, -3.89 for the second.

In the case of GGAUCUUCUCGAUCUAACAAAAAAGACAACUCUGCCACAAAGCUUGAGAGCAUCUUCGGAUGCAGAGGCGGCAGCCUUCGGUGGCGCGAUAGAGCCGACGUUCUCAACUAUGACACGCAAAACGCGUGCUCCGUUGAAUGGAGUUUAUCAUG [A30C C93A A97G], the “polymerase ribozyme fitness (log ratio)” value is reported as ≤ -4.2.
